We go through four substances from US11912789B2, “Peptide activating agent” (Interk Peptide Therapeutics Limited, priority 2018, dated 2024).

Test [1] addresses T1, Lck(h) (Homo sapiens, UniProt P06239).
T1 construct: purchased Eurofins Pharma Discovery Services UK Limited
The experiment in a line: Western blot of Lck auto-phosphorylation at Y394 (anti-pY394 Lck). In kind it is biochemical. The following applies: 10 μM and 30 μM; ATP, no peptide substrate; FIG. 2. Here is the method: Western blot studies were performed by Eurofins Pharma Discovery Services UK Limited (Dundee, United Kingdom). In brief, Lck(h) was incubated in the presence of test peptide employing standard KinaseProfiler™ reaction conditions (Eurofins Pharma Discovery Services UK Limited) and an ATP concentration within 15 μM of the Km. Reactions were allowed to proceed for 40 minutes at room temperature before being stopped by the addition of SDS-sample buffer. In each case the Lck enzyme was diluted to yield 20 ng per 25 μl reaction. Appropriate controls in the absence of compound and peptide were also run as well as an untreated sample of both the Lck(h) and Lck(h) activated kinases. The resulting samples were then subjected to SDS-PAGE and western blot analysis using the antibodies 4G10 (anti-phospho-tyrosine antibody) (see FIG. 3) and anti-pY394 Lck (R&D Systems MAB7500) (see FIG. 2). An additional blot using the secondary detection antibody (anti-mouse-HRP) was also performed. The membranes were stained by Ponceau S to verify sample loading and effective protein transfer. The 4G10 antibody is a general anti-phospho-tyrosine antibody and there are several tyrosine residues in Lck but only one auto-phosphorylating tyrosine residue, i.e., at position Y394. […] Samples were as follows (numbers correspond to the lanes on the gel): • 1. Molecular weight markers • 2. […]
In general terms: Immunoblotting shows a protein as a band on a membrane.

The test system of test [2] is wild-type Jurkat cells. Put plainly: IL-2, IL-12 secretion and IL-2Ra expression in Jurkat cells (anti-CD3/anti-CD28), ELISA. It is filed as cell-based, human. As to conditions: 48 hours; for IL-2 secretion: Biotin-CD3, CD28 and avidin stimulation, supernatant ELISA, FIG. 14, FIG. 42A; for IL-12 secretion: Biotin-anti-CD3, anti-CD28 and avidin, FIG. 42B. The procedure:
Cells were seeded at 1 million per well (12 well plate, 2 mL volume) and stimulated with Biotin-CD3, CD28, and avidin (5:5:1.25 μg). The cells were then treated with RSKAKNPLYR-(2Adod)4-NH2 at three concentrations as indicated plus vehicle control. The samples were then incubated for 48 hours at 37° C. after which supernatants were analysed for IL-2 content by ELISA.
Shown are Jurkat wild type (WT) cells and Lck deficient Jurkat cells (JCaM1.6) stimulated with anti-CD3/anti-CD28. 12 well plates were coated with anti-CD3 (5 μg/mL) solution made up in PBS (200 μL) and incubated at 37° C. overnight. The next day the anti-CD3 solution was aspirated and wells gently washed twice with media (1 mL, 10 minutes). Jurkat cells (WT and Lck Deficient) were seeded at 1 million per well in anti-CD3 coated 12 well plates, further stimulated with anti-CD28 (5 ug/mL) and at time zero treated with RSKAKNPLYR-(2Adod)4-NH2 (2.5 μM). Cells were incubated for 72 hours. For the IL-2 assay, left, supernatants were analysed for IL-2 content by ELISA. For the IL-2Ra assay, right, cells were lysed with 100 μL of lysis solution containing protease and phosphatase inhibitors as well as PP2 (10 μM). The collected cell lysates were subjected to the BCA protein assay. Cell lysates (40 μg protein) were then analysed for IL-2Ra by ELISA.
In two separate experiments, 5 million unstimulated JCam1.6 (Lck deficient) and 5 million 6.1 (WT) Jurkat cells, respectively, were seeded in T25 flasks. The cells were treated with RSKAKNPLYR-(2Adod)4-NH2 at 5 μM, 10 μM and 20 μM concentrations for 1 hour after which the cell suspensions were centrifuged and washed twice with fresh media. For each experiment, a mixture of Biotin-anti-CD3 and Avidin (5:1.25 ug) in 500 μL of media was added to the wells of a 12 well plate. After 10 minutes the unstimulated, washed cells were seeded at 1 million cells per well and the cell suspension made up to 2 mL volume with media. The samples were then further stimulated with anti-CD28 (5 ug/mL), after which the samples were incubated for 48 hours at 37° C. The supernatants (100 μL, n=3), were then analyzed for IL-2 content.
12 well plates were coated with anti-CD3 (5 μg/mL) solution made up in PBS (200 μL) and incubated at 37° C. overnight. […] Cells were incubated for 24 hours and supernatants were then analysed for IL-2 by ELISA.
12 well plates were coated with anti-CD3 (5 μg/mL) solution made up in PBS (200 μL) and incubated at 37° C. overnight. […] Cell lysates (40 μg protein) were then analysed for IL-2Ra by ELISA.
12 well plates were coated with anti-CD3 (5 μg/mL) solution made up in PBS (200 μL) and incubated at 37° C. overnight. […] Cells were incubated for 72 hours and the supernatants were then analysed for IL-2 by ELISA. […]
(In an ELISA, binding on a coated surface is turned into a signal by an enzyme label.)

Test [3] concerns PBMCs. The experiment in a line: Foxp3+ Treg proportion in anti-CD3 stimulated PBMCs. In kind it is cell-based, human. As to conditions: in the absence of RSKAKNPLYR-(2Adod)4-NH2; FIG. 9. The procedure: Shown is the percentage inhibition of Regulatory T cells (Tregs:Foxp3+) within human PBMCs in the presence of RSKAKNPLYR-(2Adod)4-NH2 (cells gated for CD4+/CD25+/CD127101. Anti-CD3 stimulated PBMCs were cultured together with RSKAKNPLYR-(2Adod)4-NH2 over a 5-concentration range plus vehicle control (0-1.25 μM) for 48 hrs. Treg populations were determined by measuring Foxp3+ proportion of cells within CD4+CD25+CD127^low population. Data were normalised due to donor variation. Data presented indicates the fold change in Foxp3+ Treg proportions in response to peptide treatment, +/−SEM, n=4. Data were analysed by RM two-way ANOVA with Dunnett's post-test comparing each peptide concentration with […], **p<0.01, ****p<0.0001. Dotted line indicates vehicle control for normalisation.
Anti-CD3 stimulated PBMCs were cultured together with RSKAKNPLYR-(2Adod)4-NH2, over a 5-concentration range plus vehicle control (0-1.25 μM) in combination with anti-PD-1 (Pembrolizumab) or isotype (hlgG4) for 48 hrs after which CD4+ and CD8+ T cells were assessed by flow cytometry. Treg populations were determined by measuring Foxp3+ proportion of cells within CD4+CD25+CD127^low populations. […] Data were analysed by RM two-way ANOVA with Sidak's post-test comparing peptide in combination with anti-PD-1 vs combination with hlgG4 at each dose, *p<0.05, **p<0.01. […]

The target of test [4] is T2, Blk (Homo sapiens, UniProt P51451).
T2 construct: purchased Eurofins Pharma Discovery Services UK Limited
T2 sequence (P51451 whole entry, species assumed): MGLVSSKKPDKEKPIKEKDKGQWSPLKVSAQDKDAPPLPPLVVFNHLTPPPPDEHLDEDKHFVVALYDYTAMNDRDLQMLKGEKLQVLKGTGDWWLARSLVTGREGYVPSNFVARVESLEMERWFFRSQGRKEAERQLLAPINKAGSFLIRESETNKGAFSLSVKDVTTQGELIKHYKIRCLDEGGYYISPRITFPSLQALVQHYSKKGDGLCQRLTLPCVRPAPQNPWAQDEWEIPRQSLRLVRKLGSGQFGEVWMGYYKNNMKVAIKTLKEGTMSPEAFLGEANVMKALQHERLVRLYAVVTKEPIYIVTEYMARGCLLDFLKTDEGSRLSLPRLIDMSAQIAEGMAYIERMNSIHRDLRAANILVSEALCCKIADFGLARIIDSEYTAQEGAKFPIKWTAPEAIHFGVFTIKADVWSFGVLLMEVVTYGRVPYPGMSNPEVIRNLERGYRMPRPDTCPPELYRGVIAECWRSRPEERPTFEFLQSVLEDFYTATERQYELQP
Put plainly: In vitro Src family kinase activation study (Eurofins). It is filed as biochemical. The following applies: Table 5. Here is the method: (§1) The ability of polypeptides of the present invention to activate Lck was examined in vitro. Lck is member of the Src family of tyrosine kinases. In vitro Lck activation kinase studies were conducted by Eurofins Pharma Discovery Services UK Limited (Dundee Technology Park, Dundee, United Kingdom) using ATP concentrations within 15 μM of the apparent Km in the presence of peptide substrate (KVEKIGEGTYGVVYK; (SEQ ID NO: 63)) and test polypeptide in semi-log dose ranges. All results in Examples X percentage Lck activity relative to control (100%).
(§2) The ability of polypeptides of the present invention to activate Src family kinases was examined in vitro. Lck activation studies were carried out as described above and all Lck activity values are shown as percentage relative to control. In brief, Table 4 and Table 5 illustrate the selective activation of Lck kinase amongst the Src family kinases in the presence of the peptide RSKAKNPLY at 10 μM concentration.

In test [5] the target is T3, Fgr (Homo sapiens, UniProt P09769).
T3 construct: purchased Eurofins Pharma Discovery Services UK Limited
Described as above. The following applies: Table 5. In kind it is biochemical. Here is the method: as §1, §2

In test [6] the target is T4, Fyn (Homo sapiens, UniProt P06241).
T4 construct: purchased Eurofins Pharma Discovery Services UK Limited
T4 sequence (P06241 whole entry, species assumed): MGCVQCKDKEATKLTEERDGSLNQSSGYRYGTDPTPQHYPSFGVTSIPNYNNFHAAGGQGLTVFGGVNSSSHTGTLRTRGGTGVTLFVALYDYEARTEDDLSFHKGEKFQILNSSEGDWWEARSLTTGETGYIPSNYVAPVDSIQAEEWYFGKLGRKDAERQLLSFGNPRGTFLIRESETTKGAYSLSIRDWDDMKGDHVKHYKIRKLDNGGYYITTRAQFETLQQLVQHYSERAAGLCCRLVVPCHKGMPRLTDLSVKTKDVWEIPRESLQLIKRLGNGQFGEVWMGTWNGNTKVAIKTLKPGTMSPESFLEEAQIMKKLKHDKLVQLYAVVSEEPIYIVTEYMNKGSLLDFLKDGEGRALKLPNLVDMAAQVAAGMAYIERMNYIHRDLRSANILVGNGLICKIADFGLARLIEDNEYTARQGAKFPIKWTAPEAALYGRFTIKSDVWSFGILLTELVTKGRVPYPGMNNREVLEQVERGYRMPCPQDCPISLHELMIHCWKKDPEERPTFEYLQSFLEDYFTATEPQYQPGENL
The description is as above. The following applies: Table 5. In kind it is biochemical. Here is the method: as §1, §2

For test [7], the target named is T5, Lyn (Homo sapiens, UniProt P07948).
T5 construct: purchased Eurofins Pharma Discovery Services UK Limited
T5 sequence (P07948 whole entry, species assumed): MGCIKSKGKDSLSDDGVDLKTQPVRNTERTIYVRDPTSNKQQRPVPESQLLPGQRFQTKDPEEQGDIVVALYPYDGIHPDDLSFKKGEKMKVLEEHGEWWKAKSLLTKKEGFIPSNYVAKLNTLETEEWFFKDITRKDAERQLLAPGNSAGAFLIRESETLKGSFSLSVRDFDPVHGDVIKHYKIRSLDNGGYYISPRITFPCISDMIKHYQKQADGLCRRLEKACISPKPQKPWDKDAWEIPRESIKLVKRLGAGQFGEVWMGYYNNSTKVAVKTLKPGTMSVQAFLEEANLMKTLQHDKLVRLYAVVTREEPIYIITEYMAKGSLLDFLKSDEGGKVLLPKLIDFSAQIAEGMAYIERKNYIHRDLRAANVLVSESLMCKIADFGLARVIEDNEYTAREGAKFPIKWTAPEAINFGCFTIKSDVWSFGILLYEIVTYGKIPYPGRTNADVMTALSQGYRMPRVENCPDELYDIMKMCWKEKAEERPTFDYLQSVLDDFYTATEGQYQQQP
The test is described as above. It is filed as biochemical. As to conditions: Table 5. The procedure: as §1, §2

In test [8] the target is T6, Yes (Homo sapiens, UniProt P07947).
T6 construct: purchased Eurofins Pharma Discovery Services UK Limited
T6 sequence (P07947 whole entry, species assumed): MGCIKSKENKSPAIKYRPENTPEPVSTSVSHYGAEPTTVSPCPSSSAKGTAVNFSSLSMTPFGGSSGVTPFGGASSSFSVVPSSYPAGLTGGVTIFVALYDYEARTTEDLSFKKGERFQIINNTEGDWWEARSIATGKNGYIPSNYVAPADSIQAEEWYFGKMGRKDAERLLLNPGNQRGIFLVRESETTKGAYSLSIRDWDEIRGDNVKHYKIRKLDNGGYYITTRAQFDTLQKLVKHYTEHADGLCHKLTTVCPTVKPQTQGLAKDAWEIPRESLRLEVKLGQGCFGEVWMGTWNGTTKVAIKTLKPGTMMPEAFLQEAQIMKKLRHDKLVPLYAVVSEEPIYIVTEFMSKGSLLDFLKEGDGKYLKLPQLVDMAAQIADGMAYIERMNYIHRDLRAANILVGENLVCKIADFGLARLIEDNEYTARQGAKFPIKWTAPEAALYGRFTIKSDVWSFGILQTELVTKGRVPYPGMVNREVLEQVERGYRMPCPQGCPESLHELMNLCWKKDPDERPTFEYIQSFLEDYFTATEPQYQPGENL
The description is as above. In kind it is biochemical. The following applies: Table 5. The procedure:
as §1, §2

For test [9], the target named is T7, cSRC (Homo sapiens, UniProt P12931).
T7 construct: purchased Eurofins Pharma Discovery Services UK Limited
The test is described as above. In kind it is biochemical. The following applies: Table 5. Here is the method:
as §1, §2

Test [10] concerns the target T8, Hck (Homo sapiens, UniProt P08631).
T8 construct: purchased Eurofins Pharma Discovery Services UK Limited
Described as above. It is filed as biochemical. The following applies: Table 5. The procedure:
as §1
The ability of polypeptides of the present invention to activate Src family kinases was examined in vitro. Lck activation studies were carried out as described above and all Lck activity values are shown as percentage relative to control. […]

T8 sequence (P08631 whole entry, species assumed): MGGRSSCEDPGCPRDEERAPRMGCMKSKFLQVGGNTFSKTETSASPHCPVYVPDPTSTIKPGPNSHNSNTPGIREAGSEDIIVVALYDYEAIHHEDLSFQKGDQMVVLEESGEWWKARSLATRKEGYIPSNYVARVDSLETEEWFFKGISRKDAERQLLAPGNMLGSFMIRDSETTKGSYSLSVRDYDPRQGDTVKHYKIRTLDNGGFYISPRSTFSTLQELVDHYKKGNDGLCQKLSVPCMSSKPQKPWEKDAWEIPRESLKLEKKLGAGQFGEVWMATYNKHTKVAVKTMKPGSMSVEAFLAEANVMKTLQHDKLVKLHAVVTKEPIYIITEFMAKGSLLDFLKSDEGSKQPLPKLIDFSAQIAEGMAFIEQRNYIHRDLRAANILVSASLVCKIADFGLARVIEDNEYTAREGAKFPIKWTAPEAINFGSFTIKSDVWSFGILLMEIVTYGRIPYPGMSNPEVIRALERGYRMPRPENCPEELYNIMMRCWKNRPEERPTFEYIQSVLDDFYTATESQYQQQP
T1 sequence (P06239 whole entry): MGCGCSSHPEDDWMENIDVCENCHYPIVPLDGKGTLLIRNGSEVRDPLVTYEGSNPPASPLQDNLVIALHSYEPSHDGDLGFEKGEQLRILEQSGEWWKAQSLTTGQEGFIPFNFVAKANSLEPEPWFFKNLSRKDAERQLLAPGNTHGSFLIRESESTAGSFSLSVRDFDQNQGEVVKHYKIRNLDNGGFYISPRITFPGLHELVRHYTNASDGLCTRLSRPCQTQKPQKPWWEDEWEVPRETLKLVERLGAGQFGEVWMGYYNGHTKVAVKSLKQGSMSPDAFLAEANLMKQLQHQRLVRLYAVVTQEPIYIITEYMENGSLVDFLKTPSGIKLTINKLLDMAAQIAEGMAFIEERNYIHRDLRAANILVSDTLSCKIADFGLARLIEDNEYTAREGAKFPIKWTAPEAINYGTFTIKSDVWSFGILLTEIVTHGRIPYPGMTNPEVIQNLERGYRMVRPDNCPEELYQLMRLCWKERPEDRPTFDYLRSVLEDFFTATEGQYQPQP

Regarding RSKAKNPLYR, the “auto-phosphorylation of Lck at Y394” value in test [1] is recorded as “does not increase”. In test [2], the IL-2 secretion result is recorded as “increase IL-2 secretion” and the IL-12 secretion entry was “not”.

Regarding Pembrolizumab [anti-PD-1 antibodies], the “proportion of Treg cells within PBMCs, anti-PD-1 versus isotype control” value in test [3] is on record as “same proportion of Treg cells”.

On to RVKVKVVVV, for which the “Lck Activity (1 μM), kinase Blk” value in test [4] (1 μM) was 0%. For the same substance, in [4] (10 μM), the “Lck Activity (10 μM), kinase Blk” value is 0%. In addition, in test [5] (1 μM), the “Lck Activity (1 μM), kinase Fgr” value is recorded as 0%. Also, the “Lck Activity (10 μM), kinase Fgr” value in test [5] (10 μM) turned out to be 0%. For the same substance, the “Lck Activity (1 μM), kinase Fyn” value in test [6] (1 μM) is 0%. Also, in [6] (10 μM), the “Lck Activity (10 μM), kinase Fyn” value stood at 0%. In addition, in test [7] (1 μM), the “Lck Activity (1 μM), kinase Lyn” value was found to be 0%. For the same substance, the “Lck Activity (10 μM), kinase Lyn” value in test [7] (10 μM) was 0%. In test [8] (1 μM), the “Lck Activity (1 μM), kinase Yes” value is 0%. Further, the “Lck Activity (10 μM), kinase Yes” value in test [8] (10 μM) was 0%. The “Lck Activity (1 μM), kinase c-Src” value in [9] (1 μM) was determined as 0%. Moreover, in [9] (10 μM), the “Lck Activity (10 μM), kinase c-Src” value came to 0%. In addition, in test [10] (1 μM), the “Lck Activity (1 μM), kinase Hck” value amounted to 0%. The “Lck Activity (10 μM), kinase Hck” value in test [10] (10 μM) was determined as 0%.

Turning to RSKAKNPLY, in [1], the “auto-phosphorylation of Lck at Y394” value was “induces a dose-dependent auto-phosphorylation of Lck”. In test [2], the IL-2 secretion entry was “increase IL-2 secretion” and the IL-12 secretion entry is given as “increase IL-12 secretion”.
